± gives the standard deviation.
Experiment: collision cross section of modified peptide (TIMS, N2, iRT-aligned); higher = larger / more extended gas-phase ion
Method: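 1/K0 was aligned run-wise to spiked iRT peptides and converted to CCS in N2 (Mason-Schamp). Values are the mean of 1-3 technical replicates for the most abundant feature at each charge state.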

[1] = charge state: 2, modification: Formyl
[2] = charge state: 2, modification: hydroxyisobutyryl
[3] = charge state: 3, modification: hydroxyisobutyryl
[4] = charge state: 2, modification: Glutarylation
[5] = charge state: 3, modification: Methyl (R)
[6] = charge state: 2, modification: Methyl (K)
[7] = charge state: 3, modification: Methyl (K)
[8] = charge state: 2, modification: Acetyl (K)
[9] = charge state: 2, modification: Malonyl
[10] = charge state: 2, modification: Butyryl
[11] = charge state: 2, modification: Crotonyl
[12] = charge state: 2, modification: Dimethyl (K)
[13] = charge state: 3, modification: Dimethyl (K)
[14] = charge state: 2, modification: Trimethyl (K)
[15] = charge state: 3, modification: Trimethyl (K)
[16] = charge state: 3, modification: Butyryl
[17] = charge state: 2, modification: Hydroxyproline
[18] = charge state: 3, modification: Citrullination (R)
[19] = charge state: 3, modification: Acetyl (K)
[20] = charge state: 3, modification: Succinyl
[21] = charge state: 3, modification: Glutarylation
[22] = charge state: 2, modification: GlyGly (K)
[23] = charge state: 3, modification: GlyGly (K)

Sequence: DDSFLGKLGGTLAR [_DDSFLGK(Formyl)LGGTLAR_]
- collision cross section [1]: 408.49 ± 1.1 Å²

Sequence: VPTTEKPTVTVNFR [_VPTTEK(hydroxyisobutyryl)PTVTVNFR_]
- collision cross section [2]: 429.55 ± 0.83 Å²
- collision cross section [3]: 512.54 ± 2 Å²

Sequence: SGKFTQQDIDEAK [_SGK(Gluratylation)FTQQDIDEAK_]
- collision cross section [4]: 415.95 ± 0.14 Å²

Sequence: GGGDRGGFGPGK [_GGGDR(Methyl (R))GGFGPGK_]
- collision cross section (charge state: 2, modification: Methyl (R)): 341.42 ± 0.86 Å²
- collision cross section [5]: 412.06 ± 3 Å²

Sequence: ALLQAKASGK [_ALLQAK(Methyl (K))ASGK_]
- collision cross section [6]: 342.45 ± 0.79 Å²
- collision cross section [7]: 423.28 ± 5 Å²

Sequence: IGNSYFKEEK [_IGNSYFK(Acetyl (K))EEK_]
- collision cross section [8]: 372.71 ± 0.4 Å²

Sequence: ASNAAVKLAESK [_ASNAAVK(Malonyl)LAESK_]
- collision cross section [9]: 371.16 ± 0.62 Å²

Sequence: TVSKVDDFLANEAK [_TVSK(Butyryl)VDDFLANEAK_]
- collision cross section [10]: 424.02 ± 0.86 Å²

Sequence: TTGFYSGFSEVAEKR [_TTGFYSGFSEVAEK(Crotonyl)R_]
- collision cross section [11]: 441.38 ± 0.77 Å²

Sequence: VNALKNLQVK [_VNALK(Dimethyl (K))NLQVK_]
- collision cross section [12]: 371.74 ± 0.57 Å²
- collision cross section [13]: 421.1 Å²

Sequence: DESFLGKLGGTLAR [_DESFLGK(Dimethyl (K))LGGTLAR_]
- collision cross section [12]: 418.8 ± 0.75 Å²
- collision cross section [13]: 466.85 ± 1.2 Å²

Sequence: GGPGSTLSFVGKR [_GGPGSTLSFVGK(Dimethyl (K))R_]
- collision cross section [12]: 393.41 ± 0.79 Å²
- collision cross section [13]: 425.47 ± 2 Å²

Sequence: VFSIISSEKELK [_VFSIISSEK(Acetyl (K))ELK_]
- collision cross section [8]: 405.7 ± 0.9 Å²

Sequence: TEVLSPNSKVESK [_TEVLSPNSK(Malonyl)VESK_]
- collision cross section [9]: 400.58 ± 1.9 Å²
- collision cross section (charge state: 3, modification: Malonyl): 444.22 ± 3.4 Å²

Sequence: DLGKFQVATDALK [_DLGK(Gluratylation)FQVATDALK_]
- collision cross section [4]: 414.3 ± 0.6 Å²

Sequence: DLGKFQVATDALK [_DLGK(Trimethyl (K))FQVATDALK_]
- collision cross section [14]: 414.1 ± 0.6 Å²
- collision cross section [15]: 492.6 ± 1.8 Å²

Sequence: IISSIEQKEENK [_IISSIEQK(Butyryl)EENK_]
- collision cross section [10]: 408.13 ± 0.85 Å²
- collision cross section [16]: 479 Å²

Sequence: GITGKPGPK [_GITGKP(Hydroxyproline)GPK_]
- collision cross section [17]: 315.51 ± 1.9 Å²

Sequence: AAINQKLIETGER [_AAINQK(Butyryl)LIETGER_]
- collision cross section [10]: 410.95 ± 1.7 Å²

Sequence: PPGFSPFRSSR [_PP(Hydroxyproline)GFSPFRSSR_]
- collision cross section [17]: 367.16 Å²
- collision cross section (charge state: 3, modification: Hydroxyproline): 458.87 ± 0.35 Å²

Sequence: VLATQPGPGRGR [_VLATQPGPGR(Citrullination (R))GR_]
- collision cross section (charge state: 2, modification: Citrullination (R)): 364.01 ± 0.27 Å²
- collision cross section [18]: 447.25 Å²

Sequence: ISSNFSSIIAEKLR [_ISSNFSSIIAEK(Gluratylation)LR_]
- collision cross section [4]: 430.8 ± 0.96 Å²

Sequence: RFGGPVHHQAQR [_R(Methyl (R))FGGPVHHQAQR_]
- collision cross section [5]: 496.52 ± 2.2 Å²

Sequence: HHTLRQAPQPQSSLQR [_HHTLR(Citrullination (R))QAPQPQSSLQR_]
- collision cross section [18]: 502.84 ± 0.41 Å²

Sequence: SNEEGSEEKGPEVR [_SNEEGSEEK(Crotonyl)GPEVR_]
- collision cross section [11]: 406.51 ± 0.28 Å²

Sequence: YEQEHAAIQDKLFQVAK [_YEQEHAAIQDK(Acetyl (K))LFQVAK_]
- collision cross section [19]: 513.78 ± 1.6 Å²

Sequence: SRGGGGNFGPGPGSNFR [_SR(Citrullination (R))GGGGNFGPGPGSNFR_]
- collision cross section [18]: 461.31 ± 6.4 Å²

Sequence: DTGEKLTVAENEAETK [_DTGEK(Methyl (K))LTVAENEAETK_]
- collision cross section [6]: 429.8 ± 2.5 Å²
- collision cross section [7]: 482 ± 3.4 Å²

Sequence: KFGVLSDNFK [_K(Acetyl (K))FGVLSDNFK_]
- collision cross section [8]: 370.76 ± 0.46 Å²

Sequence: DESFLGKLGGTLAR [_DESFLGK(Succinyl)LGGTLAR_]
- collision cross section (charge state: 2, modification: Succinyl): 416.2 ± 0.36 Å²
- collision cross section [20]: 490.1 ± 2.1 Å²

Sequence: DKALPLEAEVAPVK [_DK(Trimethyl (K))ALPLEAEVAPVK_]
- collision cross section [14]: 415.71 ± 1.1 Å²
- collision cross section [15]: 491.82 ± 2.4 Å²

Sequence: TEVLSPNSKVESK [_TEVLSPNSK(Dimethyl (K))VESK_]
- collision cross section [12]: 400.19 ± 1.6 Å²
- collision cross section [13]: 477.45 ± 2.4 Å²

Sequence: VDVEVPDVSLEGPEGKLK [_VDVEVPDVSLEGPEGK(Methyl (K))LK_]
- collision cross section [6]: 462.48 ± 7.8 Å²
- collision cross section [7]: 551.69 ± 1.3 Å²

Sequence: TQDQISNIKYHEEFEK [_TQDQISNIK(Trimethyl (K))YHEEFEK_]
- collision cross section [15]: 544.72 ± 0.9 Å²

Sequence: SDSGKPYYYNSQTK [_SDSGK(Trimethyl (K))PYYYNSQTK_]
- collision cross section [15]: 473.28 ± 2.4 Å²

Sequence: SNEEGSEEKGPEVR [_SNEEGSEEK(Gluratylation)GPEVR_]
- collision cross section [4]: 407.15 ± 0.96 Å²
- collision cross section [21]: 470.21 Å²

Sequence: DLSTVEALQNLKNLK [_DLSTVEALQNLK(hydroxyisobutyryl)NLK_]
- collision cross section [2]: 486.36 ± 1.3 Å²
- collision cross section [3]: 549.84 ± 1.8 Å²

Sequence: GFALVGVGSEASSKK [_GFALVGVGSEASSK(Methyl (K))K_]
- collision cross section [6]: 437.53 ± 2.3 Å²
- collision cross section [7]: 496.87 ± 4 Å²

Sequence: SPPLPEHQKIPCNSAEPK [_SPPLPEHQK(Succinyl)IPCNSAEPK_]
- collision cross section [20]: 539.73 ± 2.2 Å²

Sequence: AAINQKLIETGER [_AAINQK(Formyl)LIETGER_]
- collision cross section [1]: 399.86 ± 0.2 Å²

Sequence: ASAISIKLGSSK [_ASAISIK(hydroxyisobutyryl)LGSSK_]
- collision cross section [2]: 374.73 ± 0.8 Å²

Sequence: DLSTVEALQNLKNLK [_DLSTVEALQNLK(Dimethyl (K))NLK_]
- collision cross section [12]: 476.15 ± 1.7 Å²
- collision cross section [13]: 513.29 ± 0.57 Å²

Sequence: VGVEVPDVNIEGPEGKLK [_VGVEVPDVNIEGPEGK(Formyl)LK_]
- collision cross section [1]: 455.9 ± 1.7 Å²

Sequence: DTPTSAGPNSFNKGK [_DTPTSAGPNSFNK(GlyGly (K))GK_]
- collision cross section [22]: 413.5 ± 3.1 Å²
- collision cross section [23]: 464.37 ± 0.33 Å²

Sequence: LLIVSTTPYSEKDTK [_LLIVSTTPYSEK(Biotin)DTK_]
- collision cross section (charge state: 2, modification: Biotin): 480.64 Å²

Sequence: VDIDAPDVSIEGPDAKLK [_VDIDAPDVSIEGPDAK(Malonyl)LK_]
- collision cross section [9]: 466.92 ± 1.2 Å²

Sequence: DYILEGEPGK [_DY(Nitro (Y))ILEGEPGK_]
- collision cross section (charge state: 2, modification: Nitro (Y)): 355.27 ± 0.17 Å²

Sequence: LLEQKTQESQK [_LLEQK(Methyl (K))TQESQK_]
- collision cross section [6]: 404.61 ± 2.3 Å²
- collision cross section [7]: 458.64 ± 4.9 Å²

Sequence: INNFSADIKDSK [_INNFSADIK(Butyryl)DSK_]
- collision cross section [10]: 405.78 ± 0.75 Å²
- collision cross section [16]: 461.68 ± 3.2 Å²

Sequence: IQTVPASHLQQGTASGSSK [_IQTVPASHLQQGTAS(HexNAc (ST))GSSK_]
- collision cross section (charge state: 3, modification: HexNAc (ST)): 510.18 ± 0.18 Å²

Sequence: DSINFLDHINGKK [_DSINFLDHINGK(Gluratylation)K_]
- collision cross section [21]: 460.36 ± 1.7 Å²

Sequence: SLFFGGKGAPLQR [_SLFFGGK(Acetyl (K))GAPLQR_]
- collision cross section [8]: 401.47 ± 0.85 Å²

Sequence: VLDSGAPIKIPVGPETLGR [_VLDSGAPIK(GlyGly (K))IPVGPETLGR_]
- collision cross section [22]: 467.11 ± 1.6 Å²
- collision cross section [23]: 510.19 ± 1.1 Å²

Sequence: DESFLGKLGGTLAR [_DESFLGK(Acetyl (K))LGGTLAR_]
- collision cross section [8]: 410.82 ± 1.1 Å²
- collision cross section [19]: 491.27 Å²

Sequence: LQAAYAGDKADDIQK [_LQAAYAGDK(Acetyl (K))ADDIQK_]
- collision cross section [8]: 429.91 ± 2.1 Å²
- collision cross section [19]: 488.96 ± 0.48 Å²

— the supplement of paper PMC10598134
